Reference: article PMC3169403 (Acta Crystallographica Section F: Structural Biology and …, 2011)

Molecular target: glutaryl-CoA dehydrogenase from Burkholderia pseudomallei (Burkholderia pseudomallei strain 1710b)
Test: crystal structure

## glutaryl-CoA dehydrogenase from Burkholderia pseudomallei (enzyme)
  stoichiometry N: 4
